Results on one molecule are retold here after patent publication US20170008934A1, “BACTERIALLY FORMED MICROCIN S, A NEW ANTIMICROBIAL PEPTIDE, EFFECTIVE AGAINST PATHOGENIC MICROORGANISMS, E.G. ENTEROHEMORRHAGIC ESCHERICHIA COLI (EHEC)” (SYMBIOGRUPPE GmbH & CO. KG, priority 2011, published 2017).

This assay has as its system EHEC (86-24 O157:H7, O104:H4, O128:H2). Nature of the assay: in vitro adherence assay: inhibition of EHEC adherence to human intestinal epithelial cells (LOVO) after pre-incubation with test strains. Conditions: ESBL-producing O104:H4 outbreak strain, O128:H2 and O157:H7 EHEC isolates; FIG. 5 (tested as producer strain E. coli G3/10). Format: cell-based. Here is the method:
Enterohemorrhagic E. coli adhere to intestinal epithelial cells. In a second experiment, confluent monolayers of LOVO cells were pre-incubated with bacterial test strains at a multiplicity of infection (MOI) of 100:1 E. coli to host cells. The influence of EcN and E. coli G3/10 was tested. After two hours of incubation, cells were washed and infected with EHEC using an MOI of 100:1 EHEC to host cells. Three EHEC isolates were tested as indicator strains using the in vitro adherence assay. We used HUS-associated EHEC 86-24 serotype O157:H7 and two different isolates of the EHEC O104:H4 outbreak strain as well as an EHEC O128:H2 patient isolate. Since the EHEC O104:H4 isolates are ESBL producers, medical treatment is limited. Adherence efficiency in % are expressed as adherence of EHEC relative to adherence without any pre-incubation (negative control), which is set 100%. The data are the mean±SD of three separate experiments in duplicate wells.

B1: microcin S: new class IIa microcin, antimicrobial polypeptide of E. coli G3/10, SEQ ID NO: 7 (precursor with leader SEQ ID NO: 6) (protein, listed as Escherichia coli)
chain: NANSNYEGGGSRSRNTGARNSLGRNAPTHIYSDPSTVKCANAVFSGMVGGAIKGGPVGMTRGTIGGAVIGQCLSGGGNGNGGGNRAGSSNCSGSNVGGTCSR
On to B1, for which the “inhibitory effect of EHEC” value is “shows an inhibitory effect of EHEC”.
